Measurements taken from publication PMC11036296.

What follows are substances tested against Patched 1 (Ptch1) receptor (mouse (endogenous in C3H10T1/2)) (UniProt Q61115).
UniProt Q61115, sequence (Q61115 whole entry): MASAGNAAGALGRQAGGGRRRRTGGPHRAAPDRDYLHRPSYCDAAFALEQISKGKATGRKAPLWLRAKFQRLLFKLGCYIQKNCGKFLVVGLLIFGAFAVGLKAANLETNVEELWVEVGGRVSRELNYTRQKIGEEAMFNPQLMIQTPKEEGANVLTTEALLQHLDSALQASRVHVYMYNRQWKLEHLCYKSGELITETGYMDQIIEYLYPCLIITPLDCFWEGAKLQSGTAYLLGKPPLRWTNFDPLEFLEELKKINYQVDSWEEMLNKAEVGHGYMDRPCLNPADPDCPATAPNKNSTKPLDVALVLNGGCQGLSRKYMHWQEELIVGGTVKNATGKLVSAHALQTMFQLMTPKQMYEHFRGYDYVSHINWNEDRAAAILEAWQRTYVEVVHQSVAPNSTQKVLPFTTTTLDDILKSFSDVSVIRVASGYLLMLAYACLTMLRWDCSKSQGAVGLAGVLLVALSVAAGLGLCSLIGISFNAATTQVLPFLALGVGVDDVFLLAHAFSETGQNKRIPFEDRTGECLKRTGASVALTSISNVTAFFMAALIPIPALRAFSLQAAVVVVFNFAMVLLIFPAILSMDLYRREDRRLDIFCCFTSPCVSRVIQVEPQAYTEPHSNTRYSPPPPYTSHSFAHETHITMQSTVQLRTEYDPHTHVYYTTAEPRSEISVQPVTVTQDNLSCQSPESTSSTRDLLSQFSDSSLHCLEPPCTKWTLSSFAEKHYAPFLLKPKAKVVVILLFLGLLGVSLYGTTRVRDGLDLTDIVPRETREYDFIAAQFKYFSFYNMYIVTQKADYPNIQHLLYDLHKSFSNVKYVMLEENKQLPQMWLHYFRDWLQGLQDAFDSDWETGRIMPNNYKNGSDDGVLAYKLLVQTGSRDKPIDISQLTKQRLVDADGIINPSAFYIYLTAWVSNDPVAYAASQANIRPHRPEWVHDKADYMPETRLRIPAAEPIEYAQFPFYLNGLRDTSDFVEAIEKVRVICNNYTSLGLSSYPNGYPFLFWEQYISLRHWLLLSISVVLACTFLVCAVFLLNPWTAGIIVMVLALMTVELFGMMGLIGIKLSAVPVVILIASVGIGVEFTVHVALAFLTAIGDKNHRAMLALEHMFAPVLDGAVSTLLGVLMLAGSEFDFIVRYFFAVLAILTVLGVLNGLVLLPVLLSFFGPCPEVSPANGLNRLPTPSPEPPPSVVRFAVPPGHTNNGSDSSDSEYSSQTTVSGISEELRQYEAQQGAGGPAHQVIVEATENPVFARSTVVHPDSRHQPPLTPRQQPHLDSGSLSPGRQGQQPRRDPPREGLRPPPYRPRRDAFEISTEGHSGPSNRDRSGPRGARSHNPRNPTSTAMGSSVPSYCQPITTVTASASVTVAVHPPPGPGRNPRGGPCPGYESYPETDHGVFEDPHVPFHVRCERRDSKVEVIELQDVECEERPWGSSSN

Substance | Alp1 activity of C3H10T1/2 cells (differentiation into osteoblasts) [au] | Alp1 activity of C3H10T1/2 cells (differentiation into osteoblasts), with the Shh-neutralising antibody 5E1 (1 µg/mL) [au]
Shh^C, soluble depalmitoylated (N-terminally processed), C-cholesteroylated Sonic hedgehog released in the presence of 10% serum (ligand) | 1.5 | 0.26
^C25S;Δ26–31Shh^C (from UniProt Q62226 25-198) (ligand) | 1.41 | –
^C25S;Δ26–32Shh^C (from UniProt Q62226 25-198) (ligand) | 1.26 | –
^C25S;Δ26–33Shh^C (from UniProt Q62226 25-198) (ligand) | 1.65 | –
^C25S;Δ26–34Shh^C (from UniProt Q62226 25-198) (ligand) | 0.7 | –
^C25S;Δ26–35Shh^C (from UniProt Q62226 25-198) (ligand) | 0.38 | –
^C25S;Δ26–36Shh^C (from UniProt Q62226 25-198) (ligand) | 0.39 | –
^C25S;Δ26–37Shh^C (from UniProt Q62226 25-198) (ligand) | 0.46 | –
^C25S;Δ26–38Shh^C (from UniProt Q62226 25-198) (ligand) | 0.36 | –
^C25SShh^C, unpalmitoylated cholesteroylated soluble Shh (from UniProt Q62226 25-198) (ligand) | 1.71 | 0.21
